Drawing on publication PMC3382604, this text covers stoichiometry N for two substances.

Usually stoichiometry N stands for the number of molecules, sites or subunits per partner or assembly.

Assay [1] has as its target Dihydrodipicolinate synthase from Bacillus anthracis (Bacillus anthracis). Briefly: AUC.
Assay [2] shares this target. Briefly: SAXS.
In assay [3] the target is Dihydrodipicolinate synthase from Vitis vinifera (Vitis vinifera). Briefly: SAXS.
The target is the same in assay [4]. Briefly: crystal structure; Vv-DHDPS in complex with pyruvate, 2.2 Å, space group P1, eight monomers (two tetramers) in the asymmetric unit.
Assay [5] has the same target. As to the kind of experiment: AUC; sedimentation velocity, 13 µM initial protein, 40,000 rpm, 30°C, absorbance at 280 nm, 2DSA Monte Carlo analysis; without and with saturating (5 mM) pyruvate.

In the case of “Dihydrodipicolinate synthase from Bacillus anthracis (enzyme)”, the stoichiometry N in assay [1] and in assay [2] was 4 each time.

Turning to “Dihydrodipicolinate synthase from Vitis vinifera (enzyme)”, the stoichiometry N in assay [3], in assay [4] and in assay [5] was 4 each time.
